Assays:
[1] = target: GPNMB (CG56972) on the surface of human tumor cell lines (human) (UniProt Q14956); assay: flow cytometry, SKMEL2 cells, untreated; background control
[2] = target: GPNMB (CG56972) on the surface of human tumor cell lines (human) (UniProt Q14956); assay: flow cytometry, SF539 (printed SF549) cells, untreated, 24 h; background control
[3] = target: GPNMB (CG56972) on the surface of human tumor cell lines (human) (UniProt Q14956); assay: flow cytometry, A375 cells, untreated, 48 h; background control
[4] = target: GPNMB (CG56972) on the surface of human tumor cell lines (human) (UniProt Q14956); assay: flow cytometry, SF539 (printed SF549) cells, untreated, 12 h; background control
[5] = target: GPNMB (CG56972) on the surface of human tumor cell lines (human) (UniProt Q14956); assay: flow cytometry, WM2664 cells, untreated; background control
[6] = target: GPNMB (CG56972) on the surface of human tumor cell lines (human) (UniProt Q14956); assay: flow cytometry, A375 cells, untreated, 12 h; background control
[7] = target: GPNMB (CG56972) on the surface of human tumor cell lines (human) (UniProt Q14956); assay: flow cytometry, A375 cells, untreated, 24 h; background control
[8] = target: GPNMB (CG56972) on the surface of human tumor cell lines (human) (UniProt Q14956); assay: flow cytometry, SF539 (printed SF549) cells, untreated, 48 h; background control
[9] = target: GPNMB (CG56972) on the surface of human tumor cell lines (human) (UniProt Q14956); assay: flow cytometry on intact, non-permeabilized A375 melanoma cells, Treatment: None; primary antibody 10 ug/mL per methods, geometric mean fluorescence intensity

GPNMB (CG56972) on the surface of human tumor cell lines (human), sequence (Q14956 23-492): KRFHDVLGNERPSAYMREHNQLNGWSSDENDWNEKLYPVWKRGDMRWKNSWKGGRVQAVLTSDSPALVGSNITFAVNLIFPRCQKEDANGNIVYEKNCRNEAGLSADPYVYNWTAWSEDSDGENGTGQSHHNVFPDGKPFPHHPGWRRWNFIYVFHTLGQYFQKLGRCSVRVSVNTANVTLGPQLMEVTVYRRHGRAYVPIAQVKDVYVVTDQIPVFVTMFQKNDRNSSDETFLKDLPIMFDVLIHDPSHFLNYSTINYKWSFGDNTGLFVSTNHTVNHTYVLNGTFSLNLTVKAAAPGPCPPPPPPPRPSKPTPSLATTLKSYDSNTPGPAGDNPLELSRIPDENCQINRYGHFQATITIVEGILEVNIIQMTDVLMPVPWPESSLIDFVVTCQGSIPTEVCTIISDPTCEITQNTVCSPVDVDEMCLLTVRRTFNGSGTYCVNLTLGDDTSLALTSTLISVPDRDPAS

**Q.** For “unrelated human IgG2 isotype control monoclonal antibody”, which GeoMean [1] is on record?
**A.** 6.9

**Q.** And the GeoMean [2]?
**A.** 8.7

**Q.** What about the GeoMean [3] of the same substance?
**A.** 7.8

**Q.** And the GeoMean [4]?
**A.** 8.2

**Q.** And the GeoMean [5]?
**A.** 7.3

**Q.** What about the GeoMean [6] of the same substance?
**A.** 7.4

**Q.** And the GeoMean [7]?
**A.** 7.5

**Q.** What about the GeoMean [8] of the same substance?
**A.** 9.5

**Q.** And the GeoMean [9]?
**A.** 8.4

Reference: patent publication US20180043014A1
